The results in this text go back to patent US20170253873A1 (MAYO FOUNDATION FOR MEDICAL EDUCATION AND RESEARCH, published 2017).

B2: phosphorylated Smad2 (pSmad2) (other, UniProt Q62432 2-467, looked up)
chain: SSILPFTPPVVKRLLGWKKSAGGSGGAGGGEQNGQEEKWCEKAVKSLVKKLKKTGRLDELEKAITTQNCNTKCVTIPSTCSEIWGLSTANTVDQWDTTGLYSFSEQTRSLDGRLQVSHRKGLPHVIYCRLWRWPDLHSHHELKAIENCEYAFNLKKDEVCVNPYHYQRVETPVLPPVLVPRHTEILTELPPLDDYTHSIPENTNFPAGIEPQSNYIPETPPPGYISEDGETSDQQLNQSMDTGSPAELSPTTLSPVNHSLDLQPVTYSEPAFWCSIAYYELNQRVGETFHASQPSLTVDGFTDPSNSERFCLGLLSNVNRNATVEMTRRHIGRGVRLYYIGGEVFAECLSDSAIFVQSPNCNQRYGWHPATVCKIPPGCNLKIFNNQEFAALLAQSVNQGFEAVYQLTRMCTIRMSFVKGWGAEYRRQTVTSTPCWIELHLNGPLQWLDKVLTQMGSPSVRCSSMS
modifications: phosphorylated (sites not given)
notes: Endogenous protein from AKR-2B cell lysate, detected by Western blot with a phospho-Smad2 specific antibody

The target of assay [1] is B2. Briefly: GST pull-down from AKR-2B lysate, Western blot. In general terms: Immunoblotting shows a protein as a band on a membrane.
Experimental: (§1) Lysates from AKR-2B cells untreated (−) or stimulated (+) for 45 minutes with 5 ng/mL TGFβ were incubated with GST beads or the indicated fusion polypeptides immobilized on GST beads. Bound polypeptides were eluted and assessed by Western analysis for pSmad3 or pSmad2. Cell lysate reflects signal obtained from 10 μg total protein. (B) AKR-2B cells were transduced for 90 minutes with the indicated concentrations of the TAT-SNX9(SH3) fusion polypeptides. Following washing and 1 hour TGFβ (5 ng/mL) treatment, nuclear fractions were isolated, and Western blotted for pSmad2, pSmad3, or histone deacetylase 1 (HDAC) (Left). Quantitation of nuclear pSmads was performed with Image J software and represents the mean+/−sd of two experiments (Right). […] Immunofluorescence for Smad3 or the HA-tagged TAT-SNX9(SH3) fusion polypeptide was performed, and nuclei were stained with DAPI (Left panels). Quantitation of nuclear Smad3 from 30 cells in each of two experiments (Right).
(§2) To assess SNX9 binding to GST or His constructs, cells were incubated in the presence or absence of 5 ng/mL TGFβ for 45 minutes. Following RIPA buffer lysis, 500 μg of protein was precleared with GST Resin or TALON Metal Affinity Resin for 2 hours at 4° C. Precleared cell lysates were then treated with 5 μg purified GST- or His-fusion proteins and incubated overnight at 4° C. with gentle shaking. Following addition of GST or TALON Metal Affinity Resin and 2 hours of incubation, the pelleted (3,000×g; 10 minutes) resin was washed several times with PBS, and the remaining proteins were eluted using 1× Laemmli sample buffer. Western blotting was performed as described above.
Assay [2] concerns the target T1, GST full length (FL) SNX9 (UniProt Q9Y5X1 1-595).
T1 construct: GST fusion used in pull-down; also called GST-FL SNX9; not shown: glutathione S-transferase (GST) tag
Briefly: GST pull-down from AKR-2B lysate, Western blot.

The target in assay [3] is T2, phosphorylated Smad3 (pSmad3) (UniProt Q8BUN5 2-425, phosphorylated (sites not given)).
T2 construct: Endogenous protein from AKR-2B cell lysate, detected by Western blot with a phospho-Smad3 specific antibody; also called phosphorylated (p) Smad3
T2 sequence (Q8BUN5 2-425 limits assumed): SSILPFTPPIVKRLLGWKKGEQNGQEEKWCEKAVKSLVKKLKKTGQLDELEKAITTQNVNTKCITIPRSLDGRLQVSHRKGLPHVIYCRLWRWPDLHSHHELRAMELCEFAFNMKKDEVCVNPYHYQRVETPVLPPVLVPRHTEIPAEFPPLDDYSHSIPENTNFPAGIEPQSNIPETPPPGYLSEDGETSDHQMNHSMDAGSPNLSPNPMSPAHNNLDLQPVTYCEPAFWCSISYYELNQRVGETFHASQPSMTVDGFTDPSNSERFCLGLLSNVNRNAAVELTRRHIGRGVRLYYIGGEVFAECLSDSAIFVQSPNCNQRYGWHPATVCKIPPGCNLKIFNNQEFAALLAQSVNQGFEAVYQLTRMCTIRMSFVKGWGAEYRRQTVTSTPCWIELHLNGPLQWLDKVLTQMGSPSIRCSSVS
Briefly: His pull-down from AKR-2B lysate, Western blot.

In assay [4] the target is T2, phosphorylated Smad3 (pSmad3). Briefly: GST pull-down from AKR-2B lysate, Western blot.
Experimental: as §1, §2

B1: GST fusion of the LC (low complexity) domain of SNX9 (other, UniProt Q9Y5X1 63-203, looked up)
chain: DGKDQFSCGNSVADQAFLDSLSASTAQASSSAASNNHQVGSGNDPWSAWSASKSGNWESSEGWGAQPEGAGAQRNTNTPNNWDTAFGHPQAYQGPATGDDDDWDEDWDGPKSSSYFKDSESADAGGAQRGNSRASSSSMKI
notes: domain: LC domain; It overlaps the 1-74 fragment; also called LC domain; not shown: glutathione S-transferase (GST) tag
As to B1, the binding result in assay [1] is reported as “no binding”.
In the case of B2, in assay [2], the binding result is “no binding”.

B3: GST fusion of the first 74 amino acids of SNX9 encoding the SH3 domain (other, UniProt Q9Y5X1 1-74, looked up)
chain: MATKARVMYDFAAEPGNNELTVNEGEIITITNPDVGGGWLEGRNIKGERGLVPTDYVEILPSDGKDQFSCGNSV
notes: range 1-74; also called SH3 domain of sorting nexin 9; SNX9 SH3 domain; not shown: glutathione S-transferase (GST) tag
As to B3, in assay [1], the binding result is reported as “no binding”.

B4: TAT-SH3-2M (TAT-SH3-2 with G to V mutations at amino acids 36-38) (designed binder)
chain: TVNEGEIITITNPDVVVVWLEGRNIKGERGL
notes: range 21-51; Mutant of TAT-SH3-2; also called Control peptide; not shown: His tag, cell penetrating TAT polypeptide from HIV and HA tag
As for B4, the binding result in assay [3] was “no binding”.

B5: GST fusion of the amino half of SNX9 (SH3 and low complexity (LC) domains) (other, UniProt Q9Y5X1 1-203, looked up)
chain: MATKARVMYDFAAEPGNNELTVNEGEIITITNPDVGGGWLEGRNIKGERGLVPTDYVEILPSDGKDQFSCGNSVADQAFLDSLSASTAQASSSAASNNHQVGSGNDPWSAWSASKSGNWESSEGWGAQPEGAGAQRNTNTPNNWDTAFGHPQAYQGPATGDDDDWDEDWDGPKSSSYFKDSESADAGGAQRGNSRASSSSMKI
notes: domain: SH3 and low complexity (LC) domains; also called amino terminal peptide; not shown: glutathione S-transferase (GST) tag
For the molecule B5, the binding result in assay [1] is “no binding”.

B6: GST fusion of the carboxyl half of SNX9 (Phox and BAR domains) (other, UniProt Q9Y5X1 204-595, looked up)
chain: PLNKFPGFAKPGTEQYLLAKQLAKPKEKIPIIVGDYGPMWVYPTSTFDCVVADPRKGSKMYGLKSYIEYQLTPTNTNRSVNHRYKHFDWLYERLLVKFGSAIPIPSLPDKQVTGRFEEEFIKMRMERLQAWMTRMCRHPVISESEVFQQFLNFRDEKEWKTGKRKAERDELAGVMIFSTMEPEAPDLDLVEIEQKCEAVGKFTKAMDDGVKELLTVGQEHWKRCTGPLPKEYQKIGKALQSLATVFSSSGYQGETDLNDAITEAGKTYEEIASLVAEQPKKDLHFLMECNHEYKGFLGCFPDIIGTHKGAIEKVKESDKLVATSKITLQDKQNMVKRVSIMSYALQAEMNHFHSNRIYDYNSVIRLYLEQQVQFYETIAEKLRQALSRFPVM
notes: domain: Phox and BAR domains; not shown: glutathione S-transferase (GST) tag
Turning to B6, the binding result in assay [4] and in assay [1] was “no binding” in each case.
